Patent US20230235090A1 (HARBOUR BIOMED US, published 2023)
Each block holds one binder with its values, some of them ahead of it.

Key:
human 4-1BB [1] = target: T1, human 4-1BB (human, UniProt Q07011 24-255); experiment: FACS, CHO-K1/h4-1BB cells [K]
T1 construct: whole, on cells; also called CD137; TNFRSF9
Procedure: Antibody binding experiments at the cellular level were conducted using a CHO-K1 cell strain overexpressing human 4-1BB (CHO-K1/hu 4-1BB, Genscript, #M00538) and a CHO-K1 cell strain overexpressing cynomolgus monkey 4-1BB (CHO-K1/cyno 4-1BB, Genscript, #M00569). Briefly, the CHO-K1-hu 4-1BB and CHO-K1/cyno 4-1BB cells were digested, resuspended in F12K complete medium, and washed once with PBS. The cell density was adjusted to 1×10⁶ cells/mL with PBS. […] The cells were incubated at 4° C. for 1 h away from light. Thereafter, the cells in each well were rinsed twice with 100 μL of pre-cooled PBS, and centrifuged at 500 g at 4° C. for 5 min, and then the supernatant was discarded. […] The plate was incubated away from light at 4° C. for 30 min. The cells in each well were rinsed twice with 100 μL of pre-cooled PBS, and centrifuged at 500 g at 4° C. for 5 min, and then the supernatant was discarded. Finally, the cells in each well were resuspended in 200 μL of pre-cooled PBS, and the fluorescence signal values were read using a BD FACS CANTOII or an ACEA NovoCyte flow cytometer.

cynomolgus monkey 4-1BB [2] = target: T2, cynomolgus monkey 4-1BB (cynomolgus monkey); experiment: FACS, CHO-K1/cyno 4-1BB cells [A]
T2 construct: whole, on cells; also called CHO-K1-cyno 4-1BB; CHO-K1/cyno4-1BB
Procedure: (§1) This example is intended to investigate the in vitro binding activity of anti-human 4-1BB HCAb and H2L2 monoclonal antibodies to human and cynomolgus monkey 4-1BB. Antibody binding experiments at the cellular level were conducted using a CHO-K1 cell strain overexpressing human 4-1BB (CHO-K1-hu 4-1BB, Genescript) and a CHO-K1 cell strain overexpressing cynomolgus monkey 4-1BB (CHO-K1-cyno 4-1BB, Genescript). Briefly, the CHO-K1-hu 4-1BB and CHO-K1-cyno 4-1BB cells were digested and resuspended in DMEM complete medium, and the cell density was adjusted to 1×10⁶ cells/mL. […] The cells were incubated at 4° C. for 1 h away from light. Thereafter, the cells in each well were rinsed twice with 100 μL of pre-cooled PBS, and centrifuged at 500 g at 4° C. for 5 min, and then the supernatant was discarded. […] The plate was incubated away from light at 4° C. for 30 min. The cells in each well were rinsed twice with 100 μL of pre-cooled PBS, and centrifuged at 500 g at 4° C. for 5 min, and then the supernatant was discarded. Finally, the cells in each well were resuspended in 200 μL of pre-cooled PBS, and the fluorescence signal values were read using a BD FACS CANTOII.

human 4-1BB [3] = target: T1, human 4-1BB; experiment: FACS, CHO-K1/hu 4-1BB cells [A]
Procedure: as §1

cynomolgus monkey 4-1BB [4] = target: T2, cynomolgus monkey 4-1BB; experiment: FACS, CHO-K1/cyno 4-1BB cells [F]
Procedure: as §1

cynomolgus monkey 4-1BB [5] = target: T2, cynomolgus monkey 4-1BB; experiment: FACS, CHO-K1/cyno 4-1BB cells [E]
Procedure: as §1

cynomolgus monkey 4-1BB [6] = target: T2, cynomolgus monkey 4-1BB; experiment: FACS, CHO-K1/cyno 4-1BB cells [H]
Procedure: (§2) Antibody binding experiments at the cellular level were conducted using a CHO-K1 cell strain overexpressing human 4-1BB (CHO-K1-hu 4-1BB, Genescript) and a CHO-K1 cell strain overexpressing cynomolgus monkey 4-1BB (CHO-K1-cyno 4-1BB, Genescript). Briefly, the CHO-K1-hu 4-1BB and CHO-K1-cyno 4-1BB cells were digested and resuspended in DMEM complete medium, and the cell density was adjusted to 1×10⁶ cells/mL. […] The cells were incubated at 4° C. for 1 h away from light. Thereafter, the cells in each well were rinsed twice with 100 μL of pre-cooled PBS, and centrifuged at 500 g at 4° C. for 5 min, and then the supernatant was discarded. […] The plate was incubated away from light at 4° C. for 30 min. The cells in each well were rinsed twice with 100 μL of pre-cooled PBS, and centrifuged at 500 g at 4° C. for 5 min, and then the supernatant was discarded. Finally, the cells in each well were resuspended in 200 μL of pre-cooled PBS, and the fluorescence signal values were read using a BD FACS CANTOII.

cynomolgus monkey 4-1BB [7] = target: T2, cynomolgus monkey 4-1BB; experiment: FACS, CHO-K1/cyno 4-1BB cells [D]
Procedure: as §1

cynomolgus monkey 4-1BB [8] = target: T2, cynomolgus monkey 4-1BB; experiment: FACS, CHO-K1/cyno 4-1BB cells [B]
Procedure: as §1

cynomolgus monkey 4-1BB [9] = target: T2, cynomolgus monkey 4-1BB; experiment: FACS, CHO-K1/cyno 4-1BB cells [C]
Procedure: as §1

cynomolgus monkey 4-1BB [10] = target: T2, cynomolgus monkey 4-1BB; experiment: FACS, CHO-K1/cyno 4-1BB cells [G]
Procedure: as §2

human 4-1BB [11] = target: T1, human 4-1BB; experiment: FACS, CHO-K1/hu 4-1BB cells [H]
Procedure: as §2

human 4-1BB [12] = target: T1, human 4-1BB; experiment: FACS, CHO-K1/hu 4-1BB cells [F]
Procedure: as §1

T1 sequence (Q07011 24-255): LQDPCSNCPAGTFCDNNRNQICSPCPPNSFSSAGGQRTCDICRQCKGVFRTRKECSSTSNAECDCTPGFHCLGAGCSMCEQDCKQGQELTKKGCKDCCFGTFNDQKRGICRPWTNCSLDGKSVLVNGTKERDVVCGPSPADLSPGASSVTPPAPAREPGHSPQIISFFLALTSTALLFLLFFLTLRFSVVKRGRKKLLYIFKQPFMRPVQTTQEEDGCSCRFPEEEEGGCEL

EC50 (human 4-1BB [1]): 3760 pM | Maximum MFI (human 4-1BB [1]): 83600 MFI | EC50 (cynomolgus monkey 4-1BB [2]): 443 pM | Maximum MFI (cynomolgus monkey 4-1BB [2]): 17400 MFI | EC50 (human 4-1BB [3]): 198 pM | Maximum MFI (human 4-1BB [3]): 1740 MFI
B1: PR001760 (antibody, human IgG1, V domains shown)
VH: EVQLVESGGGVVQPGGSLRLSCAASGFTFSNYAMTWVRQAPEKGLEWVSSISGSGVSTYYADSVKGRFTISRDNSKNTLYLQMTRLTAEDTAVYFCAKEGSSETDDHYYNVDVWGQGTTVTVSS
notes: anti-4-1BB HCAb, human IgG1 Fc

EC50 (cynomolgus monkey 4-1BB [4]): 485 pM | Maximum MFI (cynomolgus monkey 4-1BB [4]): 11000 MFI | EC50 (cynomolgus monkey 4-1BB [5]): 485 pM | Maximum MFI (cynomolgus monkey 4-1BB [5]): 11000 MFI | EC50 (cynomolgus monkey 4-1BB [6]): 929 pM | EC50 (cynomolgus monkey 4-1BB [2]): 485 pM | Maximum MFI (cynomolgus monkey 4-1BB [2]): 11000 MFI | EC50 (cynomolgus monkey 4-1BB [7]): 3460 pM | Maximum MFI (cynomolgus monkey 4-1BB [7]): 55500 MFI | EC50 (cynomolgus monkey 4-1BB [8]): 3460 pM | Maximum MFI (cynomolgus monkey 4-1BB [8]): 55500 MFI | EC50 (cynomolgus monkey 4-1BB [9]): 3460 pM | Maximum MFI (cynomolgus monkey 4-1BB [9]): 55500 MFI
B2: Utomilumab analog (PR000483) (antibody, human IgG2, lambda, V domains shown)
VH: EVQLVQSGAEVKKPGESLRISCKGSGYSFSTYWISWVRQMPGKGLEWMGKIYPGDSYTNYSPSFQGQVTISADKSISTAYLQWSSLKASDTAMYYCARGYGIFDYWGQGTLVTVSS
VL: SYELTQPPSVSVSPGQTASITCSGDNIGDQYAHWYQQKPGQSPVLVIYQDKNRPSGIPERFSGSNSGNTATLTISGTQAMDEADYYCATYTGFGSLAVFGGGTKLTVLG
notes: anti-4-1BB control antibody; also called Tab

EC50 (cynomolgus monkey 4-1BB [4]): 1090 pM | Maximum MFI (cynomolgus monkey 4-1BB [4]): 13400 MFI | EC50 (cynomolgus monkey 4-1BB [10]): 329 pM | EC50 (human 4-1BB [11]): 851 pM | Maximum MFI (human 4-1BB [11]): 102000 MFI | EC50 (human 4-1BB [12]): 248 pM | Maximum MFI (human 4-1BB [12]): 1770 MFI
B3: PR001838 (antibody, human IgG1, V domains shown)
VH: EVQLLESGGGLVQPGGSLRLSCAASGFTFSNYAMSWFRQPPETGLKWVSSIDGSGGDTYYADSVKGRFTISRDNSKNTLYLQMNSLRAEDTAVYYCAKEGSHGTDDSHYDVDVWGQGTTVTVSS
notes: as for B1
